The source of these data is US12617818 (UNIVERSITY OF NORTH TEXAS, dated 2026).

Primed or numbered codes have the meaning given here. Where no end group is shown, it is not given here. FITC′ = fluorescein isothiocyanate

Series [1] concerns the molecule itself. The series is described as follows: FRET, dimer dissociation (control); text value differs from Table 3.
Series [2] deals with the molecule itself. Briefly: FRET donor lifetime on dilution of donor- and acceptor-labelled peptide; dissociation of the S2 peptide coiled-coil dimer (control).
Series [3] deals with the molecule itself. Briefly: cell-based or functional assay.
The target of series [4] is T1, Rabbit skeletal myosin (rabbit).
T1 construct: mature; also called rabbit whole skeletal myosin; rabbit skeletal myosin S2
T1 sequence (Q28641 whole entry, chain 1 of 3): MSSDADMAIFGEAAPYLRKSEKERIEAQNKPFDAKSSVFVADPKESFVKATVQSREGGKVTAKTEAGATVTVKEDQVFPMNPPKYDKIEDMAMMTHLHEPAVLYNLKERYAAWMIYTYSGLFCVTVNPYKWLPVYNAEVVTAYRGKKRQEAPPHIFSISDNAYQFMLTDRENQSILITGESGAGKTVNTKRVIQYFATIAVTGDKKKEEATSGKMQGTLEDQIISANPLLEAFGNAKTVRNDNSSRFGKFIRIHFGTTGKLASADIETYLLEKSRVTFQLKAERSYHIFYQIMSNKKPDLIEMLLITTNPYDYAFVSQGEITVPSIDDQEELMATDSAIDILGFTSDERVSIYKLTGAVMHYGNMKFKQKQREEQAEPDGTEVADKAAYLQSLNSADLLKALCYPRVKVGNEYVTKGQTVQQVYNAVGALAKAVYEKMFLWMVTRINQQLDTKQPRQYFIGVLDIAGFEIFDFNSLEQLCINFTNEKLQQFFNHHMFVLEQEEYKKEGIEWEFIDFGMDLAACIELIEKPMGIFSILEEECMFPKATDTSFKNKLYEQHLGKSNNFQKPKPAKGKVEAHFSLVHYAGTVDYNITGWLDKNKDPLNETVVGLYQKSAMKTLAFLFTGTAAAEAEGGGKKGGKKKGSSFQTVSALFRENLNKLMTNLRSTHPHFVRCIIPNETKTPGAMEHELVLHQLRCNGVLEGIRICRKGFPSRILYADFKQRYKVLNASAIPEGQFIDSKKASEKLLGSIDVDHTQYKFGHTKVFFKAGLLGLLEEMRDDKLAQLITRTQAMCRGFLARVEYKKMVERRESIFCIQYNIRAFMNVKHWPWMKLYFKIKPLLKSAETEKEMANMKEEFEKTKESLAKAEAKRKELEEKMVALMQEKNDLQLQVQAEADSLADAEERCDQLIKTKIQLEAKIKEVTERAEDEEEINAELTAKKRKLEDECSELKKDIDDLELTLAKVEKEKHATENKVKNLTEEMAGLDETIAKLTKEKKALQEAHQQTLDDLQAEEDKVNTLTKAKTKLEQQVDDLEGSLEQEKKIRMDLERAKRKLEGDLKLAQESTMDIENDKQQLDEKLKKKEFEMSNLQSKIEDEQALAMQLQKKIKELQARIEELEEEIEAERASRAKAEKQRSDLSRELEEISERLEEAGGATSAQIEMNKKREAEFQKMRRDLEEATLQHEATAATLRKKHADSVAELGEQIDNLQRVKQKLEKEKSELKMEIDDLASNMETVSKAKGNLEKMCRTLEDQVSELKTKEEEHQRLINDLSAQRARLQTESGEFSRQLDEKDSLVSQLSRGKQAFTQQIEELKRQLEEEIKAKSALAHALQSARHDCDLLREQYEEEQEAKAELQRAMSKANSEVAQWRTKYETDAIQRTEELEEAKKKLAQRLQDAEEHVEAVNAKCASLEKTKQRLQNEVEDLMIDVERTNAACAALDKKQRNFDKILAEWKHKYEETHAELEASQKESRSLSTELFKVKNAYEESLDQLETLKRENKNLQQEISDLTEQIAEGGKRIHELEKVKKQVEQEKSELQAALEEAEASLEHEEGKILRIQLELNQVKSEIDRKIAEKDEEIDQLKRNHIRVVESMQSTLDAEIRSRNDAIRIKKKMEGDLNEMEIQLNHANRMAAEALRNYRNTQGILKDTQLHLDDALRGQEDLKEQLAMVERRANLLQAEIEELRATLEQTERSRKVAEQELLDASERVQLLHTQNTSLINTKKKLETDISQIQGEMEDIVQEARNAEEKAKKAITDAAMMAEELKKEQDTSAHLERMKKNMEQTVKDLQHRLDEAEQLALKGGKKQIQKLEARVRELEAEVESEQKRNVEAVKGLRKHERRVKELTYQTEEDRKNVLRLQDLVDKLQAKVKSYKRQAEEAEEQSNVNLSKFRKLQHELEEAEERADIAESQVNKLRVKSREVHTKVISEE
T1 sequence (P02602 2-192, chain 2 of 3, further chain): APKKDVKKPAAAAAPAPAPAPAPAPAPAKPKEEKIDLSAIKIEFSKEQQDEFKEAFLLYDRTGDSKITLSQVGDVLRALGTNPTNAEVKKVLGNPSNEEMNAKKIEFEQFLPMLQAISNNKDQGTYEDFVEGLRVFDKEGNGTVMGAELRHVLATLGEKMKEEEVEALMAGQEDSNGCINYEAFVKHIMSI
T1 sequence (P02608 2-170, chain 3 of 3, further chain): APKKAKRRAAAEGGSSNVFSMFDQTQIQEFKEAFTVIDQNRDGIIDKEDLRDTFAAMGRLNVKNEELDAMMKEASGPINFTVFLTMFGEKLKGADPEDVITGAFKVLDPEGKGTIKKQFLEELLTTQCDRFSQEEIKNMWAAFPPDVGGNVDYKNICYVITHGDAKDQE
Briefly: 'previously calculated Kd values, concentrations at which half of myosin is saturated'; method and source of the myosin not stated.

In series [5] the target is T1, Rabbit skeletal myosin. Briefly: 'previously calculated Kd values'; row stands under the IC-50 head for stabilizers, read as labeled stabilizer; method and source of the myosin not stated.

B1: Human β-cardiac mutant myosin S2 peptide (E930del), 18 residues (peptide)
peptide: EMNERLEDEEMNAELTAK
modifications: also: in FRET: FITC on N-terminus of one monomer, terbium-DTPA-cytosine chelate on C-terminal Lys of the other
notes: Deletion of glutamate 930 already in the entry; also called Edel930; ΔE930
As usually defined, the Kd is a measure of binding affinity in units of concentration. For the molecule B1, the values for the Kd in series [1] and in series [2] were 3.24 µM and 1.11 µM, respectively.

Consider KQELEEILHEMEARLEEEEDRGQQLQAERKKMAQQC [Smooth muscle myosin S2 synthetic peptide for GFS (MYH11), 36 residues], for which, in series [3], the “GFS: force to uncoil the S2 peptide dimer to a length of 10 nm, no anti-S2 peptide (control)” value (shortened to “GFS: force … no anti-S2 peptide (control)”) is 0.461 pN.

B2: Cardiac muscle myosin S2 synthetic peptide for GFS (MYH7), 36 residues (peptide)
peptide: KIQLEAKVKEMNERLEDEEEMNAELTAKKRKLEDEC
modifications: also: crosslinked to coverslip or silica bead through iodoacetamide-succinimidyl ester
As for B2, the “GFS: force … no anti-S2 peptide (control)” value in series [3] was 0.863 pN.

B3: Human β-cardiac myosin S2 peptide, wild-type (MYH7, 19 residues) (peptide)
peptide: EMNERLEDEEEMNAELTAK
modifications: also: in FRET: FITC on N-terminus of one monomer, terbium-DTPA-cytosine chelate on C-terminal Lys of the other
notes: Chemically synthesized; forms a coiled-coil dimer; also called human cardiac myosin S2 peptide; cardiac muscle myosin S2^pep
Consider B3, for which the Kd stood at 0.308 µM in series [1] and 0.303 µM in series [2].

B4: Human β-cardiac mutant myosin S2 peptide (E924K), 19 residues (peptide)
peptide: EMNKRLEDEEEMNAELTAK
modifications: also: in FRET: FITC on N-terminus of one monomer, terbium-DTPA-cytosine chelate on C-terminal Lys of the other
notes: E924K already in the entry; also called Cardiac Myosin S2 Mutant, E924K
Consider B4, for which the figures for the Kd in series [1] and in series [2] were 2.54 µM and 0.942 µM, respectively.

B5: FITC (fluorescein isothiocyanate) labeled destabilizing peptide (peptide)
peptide: {FITC′}-EMNERLEDEREMKAELTAK
notes: also called labeled Destabilizer; fluorescein labeled destabilizer peptide
Regarding B5, the Kd in series [4] is 0.176 µM.

As to KIQLEAKIKEVTERAEDEEEINAELTAKKRKLEDEC [Skeletal muscle myosin S2 synthetic peptide for GFS (MYH2), 36 residues], the “GFS: force … no anti-S2 peptide (control)” value in series [3] is 0.45 pN.

B6: Human skeletal myosin S2 peptide (MYH2), 19 residues (peptide)
peptide: EVTERAEDEEEINAELTAK
modifications: also: in FRET: FITC on N-terminus of one monomer, terbium-DTPA-cytosine chelate on C-terminal Lys of the other
notes: also called skeletal muscle myosin S2^pep
On to B6, for which the Kd in series [2] stood at 0.341 µM.

B7: Human smooth myosin S2 peptide (MYH11), 21 residues (peptide)
peptide: EMEARLEEEEDRGQQLQAERK
modifications: also: in FRET: FITC on N-terminus of one monomer, terbium-DTPA-cytosine chelate on C-terminal Lys of the other
notes: also called smooth muscle myosin S2^pep
In the case of B7, in series [2], binding was characterised by a dissociation constant (Kd) of 0.302 µM.

B8: TRITC (tetramethylrhodamine) labeled stabilizing peptide (peptide)
peptide: KKKKKKKKFKAKKKKKK
modifications: also: TRITC label, site not given here
notes: also called labeled Stabilizer; fluorescently labelled stabilizer peptide
B8: the Kd in series [5] was 0.33 µM.
